Results as given in patent US20130347134A1 (published 2013).

Legend:
[1] = molecular target: T1, human platelet glycoprotein Ib alpha (GPIb α) on human platelets (human, UniProt P07359 17-652); test: human whole blood over immobilized protein, parallel-plate flow chamber, 1600 s^-1
T1 construct: whole, on cells; Native receptor on washed platelets or whole blood; also called GPIb alpha; hGPIb-α
Procedure: (§1) Ex vivo platelet adhesion studies. Experiments were performed in a parallel-plate flow chamber as previously described (Offermanns, S., et al., 2006). […] Subsequently, the plate was washed and non-specific interactions blocked by the addition of TBS containing 3% BSA, pH 7.4 (1 hour, 37° C.). Human or murine plasma obtained from heparinized whole blood was added and the plates placed at 37° C. for an additional 2 hours. […] The number of platelets attached per unit area (0.07 mm²) and translocation velocities were determined by off-line analysis (Image-Pro Plus, Media Cybernetics). For GPIb α inhibition studies, the function-blocking mAb 6D1 (20 μg/ml) or mAb SZ2 (20 μg/ml; Beckman Coulter, Brea, Calif.) was added to anticoagulated human blood for 30 minutes prior to use. Experiments were performed in triplicate on two separate days. An ELISA was used to ensure equivalent coating concentration of plasma and recombinant proteins (Denis, C. et al., 1998).

[2] = molecular target: T2, murine platelet glycoprotein Ib alpha (GPIb α) on mouse platelets (mouse, UniProt O35930 17-734); test: mouse whole blood perfused 4 min over surface-immobilized recombinant VWF-A1, 1600 s-1
T2 construct: whole, on cells; Native receptor on mouse platelets or whole blood; also called murine GPIb α; mGPIb-α
T2 sequence (looked up): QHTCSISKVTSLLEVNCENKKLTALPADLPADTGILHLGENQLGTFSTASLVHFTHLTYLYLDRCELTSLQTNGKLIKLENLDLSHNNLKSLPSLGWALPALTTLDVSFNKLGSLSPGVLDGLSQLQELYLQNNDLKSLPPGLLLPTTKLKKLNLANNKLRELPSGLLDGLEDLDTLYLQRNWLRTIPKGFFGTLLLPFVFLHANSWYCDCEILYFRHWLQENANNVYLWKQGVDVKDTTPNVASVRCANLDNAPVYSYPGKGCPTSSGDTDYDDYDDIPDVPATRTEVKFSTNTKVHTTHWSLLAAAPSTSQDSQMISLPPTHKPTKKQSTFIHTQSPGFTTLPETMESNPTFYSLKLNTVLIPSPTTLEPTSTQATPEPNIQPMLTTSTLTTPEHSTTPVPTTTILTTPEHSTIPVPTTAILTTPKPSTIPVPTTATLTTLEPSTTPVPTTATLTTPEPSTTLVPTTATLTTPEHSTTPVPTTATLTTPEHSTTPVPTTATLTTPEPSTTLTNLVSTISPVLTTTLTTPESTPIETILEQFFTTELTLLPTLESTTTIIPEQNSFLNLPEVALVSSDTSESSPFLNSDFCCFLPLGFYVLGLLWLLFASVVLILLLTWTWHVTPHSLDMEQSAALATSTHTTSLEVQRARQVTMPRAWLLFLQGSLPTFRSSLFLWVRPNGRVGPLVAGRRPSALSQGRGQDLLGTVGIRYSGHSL
Procedure: as §1

- platelet deposition relative to same-species control [1]: 25%
- binding result [2]: binds
B1: recombinant wild-type murine VWF-A1 domain protein (amino acid residues 1238 to 1471), Example 3 (ligand)
chain: QEPGGLVAPPTDAPVSSTTPYVEDTPEPPLHNFYCSKLLDLVFLLDGSSMLSEAEFEVLKAFVVGMMERLHISQKRIRVAVVEYHDGSRAYLELKARKRPSELRRITSQIKYTGSQVASTSEVLKYTLFQIFGKIDRPEASHITLLLTASQEPPRMARNLVRYVQGLKKKKVIVIPVGIGPHASLKQIRLIEKQAPENKAFLLSGVDELEQRRDEIVSYLCDLAPEAPAPTQPP
notes: Generated in bacteria, with a single disulfide 1272-1458; also called murine rVWF-A1; WT murine VWF-A1 domain protein
